Consider four molecules from US20190225650A1, “PEPTIDOMIMETIC MACROCYCLES AND USE THEREOF IN REGULATING HIF1ALPHA” (AILERON THERAPEUTICS, INC., priority 2013, published 2019).

Assay [1] has as its target T1, GST-tagged p300 CH1 domain (AAs 302-423) / HIF1α (AAs 788-826) (Homo sapiens, UniProt Q09472).
T1 construct: GST-tagged p300 CH1 domain (AAs 302-423)
The assay can be described thus: Biolayer interferometry competition for binding to p300 CH1 domain. To be noted: 300 nM p300 CH1. As to the method:
Biolayer inferometry (ForteBio, Menlo Park Calif.) was used to measure competition of SP-6 for HIF1α (AAs 788-826). Biotinylated HIF1α peptide was captured on […] biosensor tip. The association of 300 nM GST-tagged p300 CH1 domain (AAs 302-423) in the presence or absence of varying concentrations of SP-6 was measured for 240 s. Dissociation was monitored for a minimum of 200 s in the absence of free p300 or stapled peptide. Binding of p300 to biosensor immobilized HIF1α target was analyzed with instrument software and total response (R) was proportional to binding.
Inhibition of p300 binding was calculated as % inhibition=[…]. A concentration of 10 μM SP-6 blocked 99% of the total binding. The inhibition was dose-dependent, with 2 μM inhibiting 50% of p300/HIF1α binding.

The target in assay [2] is T2, His6-tagged p300 (AA 323-423) (UniProt Q09472 323-423).
T2 construct: range 323-423; also called p300-CH; not shown: His6 tag
T2 sequence (Q09472 323-423 limits assumed): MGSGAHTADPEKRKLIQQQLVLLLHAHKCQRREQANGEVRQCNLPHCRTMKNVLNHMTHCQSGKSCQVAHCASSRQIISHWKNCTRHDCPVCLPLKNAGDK
The assay is described as follows: TR-FRET HIF1a/p300 displacement; grade = IC50 <=200 nM. As to the method: The ability of peptides to displace HIF1α c-terminal trans-activation domain from p300-CH was measured by a TR FRET assay. […] The complex was diluted to 300 nM final in complete assay media and competitor peptides were added. The complete assay media contained 150 mM NaCl (Sigma +S5150 or equivalent), 20 mM HEPES pH 7.4 (Boston Bioproducts, Ashland, Mass.; #BB-2076), 7.5 mM CHAPS (Thermo #28300 or equivalent), and 1 mM DTT. Protein and peptide were incubated at room temperature for 1 hour before the addition of anti-Flag-K and anti-6×HIS-D2 (CisBio, Bedford Mass.) HTRF reconstitution buffer (50 mM Phosphate pH 7, 0.8 Potassium Flouride, BSA 0.2%)¹ to a final concentration of 0.5 μM and 4 nM respectively. The reaction continued for an additional two hours at room temperature. The reaction was read on a TECAN F500 plate reader with settings recommended by CisBio. The ratio of donor to acceptor fluorescence was calculated. The resulting data was analyzed with Graphpad Prism 5.0. IC50 values were calculated for both proteins using the One Site Fit-LogIC50 equation and presented in the column “IC₅₀ (nM) (HIF1α_p300 Displacement+CHAPS)” of Table 6. ¹ Cisbio USA, Bedford, Mass.; 61HISDLB (lot 007A), 61FG2KLB (024A), HTRF Buffer (62RB3RDF)
For orientation: In TR-FRET formats the signal depends on donor and acceptor labels being close together.

Assay [3] deals with T3, GST-tagged p300 CH1 domain (AAs 302-423) (UniProt Q09472 302-423).
T3 construct: range 302-423; not shown: GST tag
T3 sequence (Q09472 302-423 limits assumed): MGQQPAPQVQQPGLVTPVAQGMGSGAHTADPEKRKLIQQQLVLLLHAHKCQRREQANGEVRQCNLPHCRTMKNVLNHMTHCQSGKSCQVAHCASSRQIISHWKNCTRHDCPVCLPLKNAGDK
The assay can be described thus: BLI competition, 300 nM GST-p300 CH1 on immobilised HIF1α 788-826. As to the method: Biotinylated HIF1α peptide was captured on Ni-NTA biosensor tip. The association of 300 nM GST-tagged p300 CH1 domain (AAs 302-423) in the presence or absence of varying concentrations of SP-6 was measured for 240 s. Dissociation was monitored for a minimum of 200 s in the absence of free p300 or stapled peptide. Binding of p300 to biosensor immobilized HIF1α target was analyzed with instrument software and total response (R) was proportional to binding.
A concentration of 10 μM SP-6 blocked 99% of the total binding. The inhibition was dose-dependent, with 2 μM inhibiting 50% of p300/HIF1α binding.

Bridge positions count the residues as written; N and C are the ends. Square brackets hold non-standard residues; d marks the D form. Peptide text beside a SMILES is read from it. R8 = C=CCCCCCC[C@@](C)(N)C(=O)O; S5 = C=CCCC[C@](C)(N)C(=O)O; Nle = CCCC[C@H](N)C(=O)O

T1 sequence (Q09472 302-423): as the sequence (Q09472 302-423 limits assumed) above

Usually inhibition stands for the share of the control response that was lost under treatment. Low readings indicate a weak effect, high ones a strong effect. As for `CCCC[C@H](NC(=O)[C@H](CC(C)C)NC(=O)[C@@H](NC(=O)[C@H](CCC(=O)O)NC(=O)[C@H](CCC(=O)O)NC(=O)[C@H](CC(=O)O)NC(=O)[C@@H](NC(=O)[C@H](Cc1ccccc1)NC(C)=O)[C@@H](C)CC)C(C)C)C(=O)N[C@@]1(C)CCCC=CCCC[C@@](C)(C(=O)N[C@@H](CCCC)C(=O)N[C@@H](C)C(=O)N[C@@H](CC(C)C)C(=O)N[C@@H](CC(=O)O)C(=O)N[C@@H](CCCNC(=N)N)C(=O)N[C@H](C(N)=O)[C@@H](C)CC)NC(=O)[C@H]([C@@H](C)CC)NC(=O)[C@H](C(C)C)NC(=O)[C@H](CC(C)C)NC1=O` [SP-6] (Ac-FIDEEVL[Nle][S5]LVI[S5][Nle]ALDRI-NH2; staple 9-13), the inhibition at 2 µM in assay [1] (2 μM) was 50%. The same molecule displayed an inhibition at 10 µM in assay [1] (10 μM) of 99%.

B1: SP-89 (peptide)
peptide: Ac-EVLM[S5]LVI[S5]MGLDRIKELPELWL-NH2
modifications: staple 5-9
SMILES: CC[C@H](C)[C@H](NC(=O)[C@H](CCCNC(=N)N)NC(=O)[C@H](CC(=O)O)NC(=O)[C@H](CC(C)C)NC(=O)CNC(=O)[C@H](CCSC)NC(=O)[C@]1(C)CCCC=CCCC[C@](C)(NC(=O)[C@H](CCSC)NC(=O)[C@H](CC(C)C)NC(=O)[C@@H](NC(=O)[C@H](CCC(=O)O)NC(C)=O)C(C)C)C(=O)N[C@@H](CC(C)C)C(=O)N[C@@H](C(C)C)C(=O)N[C@@H]([C@@H](C)CC)C(=O)N1)C(=O)N[C@@H](CCCCN)C(=O)N[C@@H](CCC(=O)O)C(=O)N[C@@H](CC(C)C)C(=O)N1CCC[C@H]1C(=O)N[C@@H](CCC(=O)O)C(=O)N[C@@H](CC(C)C)C(=O)N[C@@H](Cc1c[nH]c2ccccc12)C(=O)N[C@@H](CC(C)C)C(N)=O
The IC50 is the concentration needed to halve the response being measured. Consider B1, for which, in assay [2], the IC50 was at most 200 nM.

B2: SP-350 (peptide)
peptide: Ac-LLQAE[R8]LLRALD[S5]VNIDEEVL[Nle][S5]LVI[S5][Nle]-NH2
modifications: staple 6-13, 23-27
SMILES: CCCC[C@H](NC(=O)[C@]1(C)CCCC=CCCC[C@](C)(NC(=O)[C@H](CCCC)NC(=O)[C@H](CC(C)C)NC(=O)[C@@H](NC(=O)[C@H](CCC(=O)O)NC(=O)[C@H](CCC(=O)O)NC(=O)[C@H](CC(=O)O)NC(=O)[C@@H](NC(=O)[C@H](CC(N)=O)NC(=O)[C@@H](NC(=O)[C@]2(C)CCCC=CCCCCCC[C@@](C)(NC(=O)[C@H](CCC(=O)O)NC(=O)[C@H](C)NC(=O)[C@H](CCC(N)=O)NC(=O)[C@H](CC(C)C)NC(=O)[C@H](CC(C)C)NC(C)=O)C(=O)N[C@@H](CC(C)C)C(=O)N[C@@H](CC(C)C)C(=O)N[C@@H](CCCNC(=N)N)C(=O)N[C@@H](C)C(=O)N[C@@H](CC(C)C)C(=O)N[C@@H](CC(=O)O)C(=O)N2)C(C)C)[C@@H](C)CC)C(C)C)C(=O)N[C@@H](CC(C)C)C(=O)N[C@@H](C(C)C)C(=O)N[C@@H]([C@@H](C)CC)C(=O)N1)C(N)=O
B2 yielded an IC50 in assay [2] of at most 200 nM.

B3: SP-6 (peptide)
peptide: Ac-FIDEEVL[Nle][S5]LVI[S5][Nle]ALDRI-NH2
modifications: staple 9-13
SMILES: CCCC[C@H](NC(=O)[C@H](CC(C)C)NC(=O)[C@@H](NC(=O)[C@H](CCC(=O)O)NC(=O)[C@H](CCC(=O)O)NC(=O)[C@H](CC(=O)O)NC(=O)[C@@H](NC(=O)[C@H](Cc1ccccc1)NC(C)=O)[C@@H](C)CC)C(C)C)C(=O)N[C@@]1(C)CCCC=CCCC[C@@](C)(C(=O)N[C@@H](CCCC)C(=O)N[C@@H](C)C(=O)N[C@@H](CC(C)C)C(=O)N[C@@H](CC(=O)O)C(=O)N[C@@H](CCCNC(=N)N)C(=O)N[C@H](C(N)=O)[C@@H](C)CC)NC(=O)[C@H]([C@@H](C)CC)NC(=O)[C@H](C(C)C)NC(=O)[C@H](CC(C)C)NC1=O
Turning to B3, the results for the IC50 in assay [2] and in assay [3] were at most 200 nM and 2000 nM, respectively.
